The supplement of paper PMC12042874
± gives the uncertainty stated by the source.

assay: amyloid nucleation score (Sup35N fusion, yeast selection) (log enrichment); library NNK2; higher = more nucleation; inactive = no reads after selection
Summary of the method: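 The nucleation score equals the log enrichment of output over input reads from DiMSum, centred on the mode score of non-aggregating sequences. It was computed only for sequences with 100 or more input reads. The reads came from Illumina sequencing of plasmid inserts from psi-negative yeast expressing Sup35N fused to peptides of 20 random codons, induced with 100 μM copper sulfate for 24 hours and grown 7 days at 30°C without adenine and uracil.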

Row | Substance | amyloid nucleation score
1 | IATYIR | -0.179 ± 0.63
2 | VTNSVSHIVDCCAHSERVWV | 0.111 ± 0.39
3 | DVFGRGLMKEMGFVNFTLYY | inactive
4 | LNMVLDF | inactive
5 | QCMTKKLEISQY | -0.492 ± 1
6 | TAGLYDKTLFYSFYLRYPKF | inactive
7 | ASGVNFGT | -0.215 ± 0.45
8 | PRLYTPILYCLLTRCKVYTT | 3.41 ± 0.051
9 | PTYFWKQQCWVHYICWIMSY | -1.15 ± 0.35
10 | SSLFYERRIQLCVFI | 3.63 ± 0.077
11 | YYGNFHLMSWVWSIGPCSIY | 4.88 ± 0.11
12 | NFMGIIVLNQ | 3.19 ± 0.09
13 | TGFNRCGSRWWLLVSNVKLV | -0.388 ± 0.54
14 | GRKLMWSRF | 0.004 ± 0.45
15 | VFQSDECVFLCSN | -0.561 ± 0.55
16 | ARSPCCLYQMHIYFAKAFAD | -0.599 ± 0.33
17 | ECNSSALHNWKY | 0.088 ± 0.54
18 | TRGITCRLAYLQSLVNE | 0.383 ± 0.43
19 | ALLYYSMCCRFMRPTSAYHV | 0.246 ± 1.1
20 | LSAKWCTECNLAASRRLNIN | 0.034 ± 0.32
21 | DAVRQGTL | 0.102 ± 1.1
22 | CFNTTNEMRSTSSWLRYGSV | 3.83 ± 0.054

Row | Substance | amyloid nucleation score
23 | MGYRFSGDLMEGRSTEWWRA | 0.836 ± 0.47
24 | LAKFYLWCSGYMHSS | 0.214 ± 0.65
25 | FGSLTMEEFGDGDVVSNNKG | -0.956 ± 0.31
26 | SGTWMGAATY | 3.62 ± 0.11
27 | CPHGCIQTARYQQ | 1.19 ± 0.42
28 | ACSRANLAKKLRGMWRYSAF | -0.199 ± 1.1
29 | WLVKLSGDMF | 2.54 ± 0.073
30 | RYHWEVLK | 0.082 ± 1
31 | RIIKYIMNGRRFVVLWRVFS | 5.342 ± 0.052
32 | SFIHDWTNFHGSLGFDYGCD | 0.112 ± 1.1
33 | HRNQTASKGCSCLLDCHDTG | 0.356 ± 0.23
34 | FMMELCLALYLLSYQ | 0.061 ± 0.8
35 | RDCIRAVSCVIENTGPSAYE | 0.049 ± 0.56
36 | CLTYYTCLTWKMPCGIRHQG | 0.428 ± 0.22
37 | ANYTCTLTSL | -0.056 ± 0.21
38 | RMVVVVSKRY | 1.73 ± 0.17
39 | TFTFDGRSSNFG | -0.343 ± 0.55
40 | GVYNITTLLPRCVVNVVL | 7.482 ± 0.028
41 | KSVRIWPSVSAGTRRLKQS | inactive
42 | FYKNAP | -1.06 ± 1.1
43 | HWVCKIILRGHSSMYCSDGC | 3.35 ± 0.11
44 | VEMAFRFQRSKSCLSLDDFV | inactive

Row | Substance | amyloid nucleation score
45 | THQRAYCFSSVYWVNVSKSG | -0.006 ± 0.74
46 | FRIIYKWCLMPLMPGCGGM | inactive
47 | ASVKSILVYGGCTKWFFPHF | 4.11 ± 0.062
48 | ASYRKWNTCPIMYEVSCRYY | inactive
49 | QLFMNPDWNKRHYNELYSSG | inactive
50 | WIVRFSGCCDVGWTSGVRSY | 6.17 ± 0.075
51 | TGYAWGG | 2.16 ± 0.22
52 | AWSVIEGFQHREAFVTYRGQ | 3.7 ± 0.063
53 | YRFAGYVTPRFGYKSHNISL | -1.22 ± 1.1
54 | KCYQSFNNADALM | -0.627 ± 0.33
55 | SFLVSFHPMS | -1.33 ± 0.48
56 | WSPIGSFRCCGWCSSHQVRI | 0.179 ± 0.57
57 | RGSVVLNSVWVMLDMYCLLP | 1.82 ± 0.28
58 | LQHYDLGSCSCRWVLVTSDK | 0.584 ± 0.22
59 | FSTHDIGSRKWARQYLYVVH | 0.334 ± 0.31
60 | SSDLAGQRLSLCWVLCTG | 0.474 ± 0.53
61 | NVVMHRENVYFCLVNLHWTD | 7.837 ± 0.04
62 | QYGCMEYRHNKCNQREVCRY | 0.281 ± 0.5
63 | AMYINWSLFVKLSRRMRYQR | inactive
64 | IPQEYPSDSMDVVMYISTLV | -0.016 ± 0.79
65 | WLYLFKGWSNLDSESFTMTS | -0.943 ± 0.78
66 | VSPALK | -0.055 ± 1.1

Row | Substance | amyloid nucleation score
67 | VRNSCSTLLYASVESVFWI | 3.28 ± 0.048
68 | KVFSPHRNWWVI | 0.553 ± 0.57
69 | MLQYWMPVLGWWAFMRNLAF | 1.71 ± 0.47
70 | SMSLRTCSLSFVSWMKFKDG | 0.095 ± 0.45
71 | SYGWFCSRVIFWRSGNFYWK | inactive
72 | HTSVLNMTGSGLIPN | -1.82 ± 0.78
73 | FVDRTCLVRSMLRVLPITGG | 0.065 ± 0.61
74 | PDLMLPDRLDIERCLQVWD | 0.049 ± 0.18
75 | VQGPHSFNGVGCRPFSNERR | -0.202 ± 1.1
76 | YVCTRWVAYYLEWYGLDGPV | 0.665 ± 0.45
77 | MKPAWYIVNEWLSGTRLECM | -0.035 ± 0.49
78 | QGYAYMCTGSFFFSLLQVLS | 3.79 ± 0.1
79 | KATWS | -1.2 ± 0.76
80 | QFNKIDWMHKMFTSSRVNMS | -0.166 ± 0.31
81 | FSIDVSSYRMWLPVSDLYFI | -0.545 ± 0.76
82 | MHPVANSGNSEHMFSMLY | 3.48 ± 0.09
83 | LSDAMILNLRAIFSSISLLQ | -0.86 ± 0.78
84 | INFGWCFYMTRRWVCGMVFR | 0.106 ± 1
85 | FHDNVTQFFISISAKIYKA | 4.45 ± 0.058
86 | SCVGTN | -0.062 ± 0.55
